Assay results from patent US20240255522A1.

What was measured:
Details in all cases: modification not given
[1] = molecular target: HLA-DRB1*15:01 MHCII molecule (human); assay: competition ELISA; 25 nM huCLIP-bio
[2] = molecular target: HLA-DRB1*08:01 MHCII molecule (human); assay: competition ELISA; 25 nM huCLIP-bio
[3] = molecular target: HLA-DRB1*04:01 MHCII molecule (human); assay: competition ELISA; 25 nM huCLIP-bio
[4] = molecular target: HLA-DRB1*09:01 MHCII molecule (human); assay: competition ELISA; 25 nM huCLIP-bio
[5] = molecular target: HLA-DRB1*11:01 MHCII molecule (human); assay: competition ELISA; 25 nM huCLIP-bio
[6] = molecular target: HLA-DRB1*15:01 MHCII molecule (human); assay: competition ELISA; 50 nM huCLIP-bio
[7] = molecular target: HLA-DRB1*08:01 MHCII molecule (human); assay: competition ELISA; 50 nM huCLIP-bio
[8] = molecular target: HLA-DRB1*04:01 MHCII molecule (human); assay: competition ELISA; 50 nM huCLIP-bio
[9] = molecular target: HLA-DRB1*09:01 MHCII molecule (human); assay: competition ELISA; 50 nM huCLIP-bio
[10] = molecular target: HLA-DRB1*11:01 MHCII molecule (human); assay: competition ELISA; 50 nM huCLIP-bio

Question: With PVSQMRMATPLLMRP [mCLIP] as the binder, how does the IC50 [1] read?
Answer: 14.6 nM

Question: What about the IC50 [2] of the same binder?
Answer: 36.6 nM

Question: And the IC50 [3]?
Answer: 31.2 nM

Question: And the IC50 [4]?
Answer: 25 nM

Question: What about the IC50 [5] of the same binder?
Answer: 22.6 nM

Question: And the IC50 [6]?
Answer: 46.1 nM

Question: What about the IC50 [7] of the same binder?
Answer: 69.4 nM

Question: What about the IC50 [8] of the same binder?
Answer: 36.5 nM

Question: What about the IC50 [9] of the same binder?
Answer: 60.7 nM

Question: And the IC50 [10]?
Answer: 36.8 nM
